{"source": "patent US20210393711A1", "about": "(YISSUM RESEARCH DEVELOPMENT COMPANY OF THE HEBREW …, published 2021)", "binders": {"B1": {"name": "anti-TLR2 single chain antibody (scAb) secreted by transformed Lactobacillus, built from the variable regions of mAb T2.5 (scFv)", "scFv": "QVQLQQSGPELVNPGASVKLSCKASGFTFTTYGINWVKQGPGQGLEWIGWIYPRDGSTNFNENFKDKAALTVDTSSSTAYMELHSLTSEDSAVYFCARLTGGTFLDYWGQGTTVTVSSGGGGSGGGGSGGGGSDIELTQSPASLAVSLGQRATISCRASESVEYYGTSLMQWYQQKPGQPPKLLIFGASNVESGVPVRFSGSGSGTDFSLNIHPVEEDDIVMYFCQQSRKLPWTFGGGTKLEIKR", "notes": "also called scaTLR2; anti-TLR2 scAb"}}, "target": "T1, mouse Toll-like receptor 2 (mouse, UniProt Q9QUN7 25-784)", "T1 construct": "whole, on cells; also called murine TLR2; TLR2", "T1 sequence (Q9QUN7 25-784)": "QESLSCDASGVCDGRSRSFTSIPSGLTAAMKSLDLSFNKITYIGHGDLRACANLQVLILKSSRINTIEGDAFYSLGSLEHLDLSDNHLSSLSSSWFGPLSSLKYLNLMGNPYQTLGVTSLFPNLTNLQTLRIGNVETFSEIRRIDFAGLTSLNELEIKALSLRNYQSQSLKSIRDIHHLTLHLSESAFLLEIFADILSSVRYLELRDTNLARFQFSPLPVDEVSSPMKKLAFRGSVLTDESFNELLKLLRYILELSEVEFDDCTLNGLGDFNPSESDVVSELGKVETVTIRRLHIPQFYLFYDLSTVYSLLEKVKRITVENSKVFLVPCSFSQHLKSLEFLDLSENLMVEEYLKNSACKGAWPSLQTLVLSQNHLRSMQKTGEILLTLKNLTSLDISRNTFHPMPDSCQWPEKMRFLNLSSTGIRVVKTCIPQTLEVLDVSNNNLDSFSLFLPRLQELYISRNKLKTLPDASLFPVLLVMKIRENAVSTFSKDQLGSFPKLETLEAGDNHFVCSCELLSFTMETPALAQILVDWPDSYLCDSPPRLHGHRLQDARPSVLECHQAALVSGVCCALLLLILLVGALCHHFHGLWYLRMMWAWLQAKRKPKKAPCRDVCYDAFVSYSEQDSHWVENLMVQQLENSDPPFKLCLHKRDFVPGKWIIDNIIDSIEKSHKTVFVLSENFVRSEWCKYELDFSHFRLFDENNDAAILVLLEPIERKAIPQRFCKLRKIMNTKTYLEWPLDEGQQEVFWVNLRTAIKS", "assay": "anti-His whole-mount immunofluorescence of mouse maxillary gingival tissue (oral tissue that expresses TLR2) 24 h after oral lavage with scaTLR2-secreting Lactobacillus", "protocol": "The ability of Lactobacillus transformants to secrete functional single chain antibody (scAb) in the oral cavity, and the ability of the scAb to bind to oral tissue that express TLR2 was next assessed. Mice were administered by one oral lavage the following Lactobacillus transformants: EV (empty vector transformed, negative control), scahTLR4 (single chain antibody against human TLR4, negative control), and scaTLR2 (single chain antibody against TLR2). After 24 h the mice were sacrificed, Lactobacillus persistence was assessed by culturing viable bacteria and enumerating CFU, and the maxillary gingival tissues were processed for whole mounting and stained with an antibody to the His-tag present in the single chain antibodies Similar Lactobacillus CFU were recovered in all three groups. […] In the control groups there was no detection of His-positive staining (FIG. 7A-B). Therefore, scaTLR2 is secreted by the transformed Lactobacilli in vivo, and avidly binds to oral mucosal tissue.", "data": [{"binder": "B1", "values": [{"measurement": "binding result", "value": "binds"}]}]}
